For one assay, the target named is T1, peptide p6773 (human, not fully specified (residue 18)).
T1 peptide: LPQPPPQAQPLLPQPQPC
The assay can be described thus: peptide ELISA / peptide microarray. A general note: An ELISA detects its analyte on a solid surface through an enzyme-linked reagent.

Assay [1] has as its target T2, recombinant N-terminal 610 amino acids Huntingtin fragment recHTT610 (human, UniProt P42858 1-610).
T2 construct: range 1-610; Expressed in HEK293 freestyle cells and captured from cell extract by anti-V5 antibody; also called recombinant Huntingtin; reHTT610; not shown: two C-terminal V5 tags
The assay can be described thus: recHTT610 capture ELISA. As for the experimental part:
Binding of antibodies to N-terminal fragment HTT610 was determined by a standard protein capture ELISA procedure using Maxisorb™ ELISA plates (Thermo; CatNr. 439454), coated with 50 μl of a 1:5000 rabbit anti V5 mAB (Sigma, CatNr. V8137), blocking with blocking buffer (PBS, 1% BSA, 0.1% Tween 20), capturing of recombinant Huntingtin from HEK cell extracts (100 ng/μl total protein) followed by incubation with several dilutions of mouse anti HTT sera (1:100; 1:300 and 1:900) or with mAB2166 as reference (diluted 1:2000; Millipore, Cat Nr. MAB2166) for 1 hour at RT. ELISA incubations, washing and detection procedures were performed according to standard procedures.
In contrast to specific anti peptide signals (FIG. 11), only 2 out of 9 mAB candidates, namely PRR13 and PRR18, specifically recognize recombinant Huntingtin when tested by recHTT610 capture ELISA (as explained in Example 1). These two candidates provided an outstanding signal to noise ratio (i.e. >=4; calculated reHTT610-specific signal: HEK ctrl extracts), and PRR13 was selected for epitope characterization (see Example 4) and variable chain sequencing (see below). PRR13 was determined as IgG subtype mouse IgG2a.

In a further assay the target is T3, peptide p7562 (human, not fully specified (residue 1)).
T3 peptide: CDSSEIVLD
In words: peptide ELISA at a mAB concentration of 1 ng/µl.

For a further assay, the target named is T4, peptide p7552 (human, not fully specified (residue 1)).
T4 peptide: CSSEIVLD
The assay can be described thus: peptide ELISA at a mAB concentration of 1 ng/µl.

In another assay the target is T5, peptide p7564 (human, not fully specified (residue 1)).
T5 construct: also called cleaved peptide
T5 peptide: CPSDSSEIVLD
In words: peptide ELISA.

A further assay concerns the target T6, peptide p7605 (human, not fully specified (residue 1)).
T6 peptide: CSEIVL
In words: peptide ELISA.

Ends that are not written are not given here.

T2 sequence (P42858 1-610): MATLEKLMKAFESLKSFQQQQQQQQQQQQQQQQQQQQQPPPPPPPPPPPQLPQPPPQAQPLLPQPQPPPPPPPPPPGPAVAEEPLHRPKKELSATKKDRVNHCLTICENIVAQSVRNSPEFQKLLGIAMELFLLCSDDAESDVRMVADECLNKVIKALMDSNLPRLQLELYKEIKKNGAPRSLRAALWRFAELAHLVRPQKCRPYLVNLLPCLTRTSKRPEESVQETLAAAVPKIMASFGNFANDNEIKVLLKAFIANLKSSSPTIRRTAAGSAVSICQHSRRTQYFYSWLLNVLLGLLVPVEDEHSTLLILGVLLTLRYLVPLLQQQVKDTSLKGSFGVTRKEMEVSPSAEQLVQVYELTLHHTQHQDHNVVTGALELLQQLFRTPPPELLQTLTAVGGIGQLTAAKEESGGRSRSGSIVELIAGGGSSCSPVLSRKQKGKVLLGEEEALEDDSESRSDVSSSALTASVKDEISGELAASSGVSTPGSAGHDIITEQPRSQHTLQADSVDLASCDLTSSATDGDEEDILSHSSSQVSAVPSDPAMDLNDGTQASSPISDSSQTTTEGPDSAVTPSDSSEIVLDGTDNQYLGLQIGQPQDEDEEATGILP

B1: monoclonal antibody PRR13 (antibody, mouse IgG2a, V domains shown)
VH: EVQLQQSAPELVKPGASVKMSCKASGYSFTDFYMKWVKQSHGKGLEWIGDIDPKNGDTFYNQKFKGRATLTVDKSSSTAYMQLNSLTTEDSAVYYCATYYGYTMDYWGQGTSVTVSS
VL: QIVLTQSPAIMSASLGERVTMTCTASSSVTSSYLHWYQQKPGSSPKLWIYSTSNLASGVPARFSGSGSGTSYSLTISSMEAEDAATYYCHQYRRPPRTFGGGTKLEIKR
notes: Mouse hybridoma mAb raised with p6773, typed mouse IgG2a; The consensus entries come from cDNA and appear to include the leader and the start of the constant region; also called mAB PRR13
For the molecule B1, the binding result in the assay with peptide p6773 is on record as “binds”. Moreover, the “signal to noise ratio (reHTT610-specific signal : HEK ctrl extracts)” value in assay [1] is no less than 4 ratio.

B2: monoclonal antibody M1D1 (antibody, mouse IgM, V domains shown)
VH: EVQLVESGGGLVQPKGSLKLSCAASGFTFNTYAMNWVRQAPGKGLEWVARIRSKSNNYATYYADSVKDRFTISRDDSQSMLYLQMNNLKTEDTAMYYCVRHGEYGNPWFAYWGQGTLVTVSA
VL: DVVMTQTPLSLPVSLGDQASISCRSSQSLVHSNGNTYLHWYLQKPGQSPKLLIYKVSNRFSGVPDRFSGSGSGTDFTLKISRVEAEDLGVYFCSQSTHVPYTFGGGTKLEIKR
notes: Mouse hybridoma mAb raised with p7564, typed mouse IgM; The consensus entries appear to include the leader and the start of the constant region; also called mAB M1D1
On to B2, for which the binding result with peptide p7562 is on record as “binds”; in the assay with peptide p7552 it was “binds”; with peptide p7564 it was “binds”; in the assay with peptide p7605, “no binding (tested: mAB concentration of 1 ng/µl)”.

The values are drawn from US20170304384A1 (AFFIRIS, published 2017).
